# Source: patent publication US20210253725A1 (BIONTECH, published 2021)
# B1: P018.S.05.A.G03 (antibody, V domains shown)
# VH: QEQLVESGGGLVQPEGSLTVTCTASGFSFSNSYWMCWVRQAPGKGLEWIACIYLGSAGTTHHATWAKGRFTISKTTSTTVTLQMTSLTAADTATYFCARAGHDYWGAYHTLWGPGTLVTVSS
# VL: DVVMTQTPASVSEPVGGSVTIKCQASQNIDNTLAWYQQKAGQPPKLLIYHASTLASGVPSRFRGSGSGTDFTLTISDLESADAATYYCQCPYYGSTYVYSFGGGTEVVVK
# B2: P018.S.08.A.A04 (antibody, V domains shown)
# VH: QSVEESGGRLVTPGTPLTLTCTVSGFSLSSYAVSWVRQAPGKGLEWIGVIWNNGATHYATWAKGRFTISKASTTVDLKVTSPTTEDTATYFCARSANDAWSTYSDLWGQGTLVTVSS
# VL: DIVMTQTPASVEAAVGGTVTIKCQASQTITNYLSWYQQKPGQPPKLLIYKASTLTSGVSSRFKGSGSGTEFTLTISDLESDDAATYYCQNYYYGSSSGYGFVFGGGTEVVVK
# notes: V regions on human Ig constant parts; also called AB137_1
# B3: P018.S.13.A.C02 (antibody, V domains shown)
# VH: QSVEESGGRLVTPGTPLTLTCTVSGFSLSSYAMSWVRQAPGKGLEWIGIISTSGITYYASWAKGRFTISKTSTMVDLKITSPTTEDTATYFCARLNGFDDYVRYFDFWGLGTLVTVSS
# VL: AIELTQTPSSVSAAVGGTVTINCQASESIASNLAWYQQKPGQPPKLLIYAASYLASGVPSRFKGSGSGTEYTLTISGVQSADAATYYCQSAFYVSSSDNAFGGGTEVVVK
# notes: V regions on human Ig constant parts; also called AB137_6
# B4: P018.S.14.A.G03 (antibody, V domains shown)
# VH: QSLEESGGRLVTPGTPLTLTCTVSGIDLSSYHMCWVRQAPGKGLEYIGYIAYGGNTYYANWAKGRFTISKTSTTVDLRITSPTTEDTATYFCARGYSEDSYWGLWGPGTLVTVSS
# VL: AYDMTQTPASVEAAVGGTVTIKCQASQNIENYLAWYQQKPGQPPKLLIYDTSKLTSGVPSRFSGSGSGTDFTLTISGVQSDDAATYYCQQDYGIIFVDNIFGGGTEVVVK
# notes: V regions on human Ig constant parts; also called AB137_11
# B5: P018.S.08.A.F03 (antibody, V domains shown)
# VH: QSVEESGGRLVTPGTPLTLTCTASGFTISSYHMIWVRQAPGEGLEWIGDIYGGTATTDYASWAKGRFTISKTSTTVDLKMTSLTTEDTATYFCARARYSGGSYANYVFNLWGQGTLVTVSS
# VL: DIVMTQTPASVEAAVGGTVTIKCQASQSISSYLAWYQQKPGQPPKLLIYRTSTLESGVPSRFKGSGSGTEFTLTISDLESADAATYYCQGYDWSSSNRYDNTFGGGTEVVVK
# notes: V regions on human Ig constant parts; also called AB137_3
# B6: P018.S.14.A.D06 (antibody, V domains shown)
# VH: QSVEESGGRLVTPGTPLTLTCTVSGFSLSTYAMIWVRQAPGKGLEWIGVVYDNGYISHATWVKGRFTISKTSTTVGLEITSPTTEDTATYFCARSADGSWSTYFNLWGQGTLVTVSS
# VL: DIVMTQTPASVEAAVGGTVTIKCQASESISNYLAWYQQKPGQPPKLLIYKASTLASGVSSRFKGSGSGTEFTLTISDLESADAATYYCQTNYCCSSSDNGFAFGGGTEVVVK
# notes: V regions on human Ig constant parts; also called AB137_10
# B7: P018.S.13.A.G03 (antibody, V domains shown)
# VH: QSLEESGGRLVTPGTPLTLTCTASGFSLSSYDVSWVRQAPGKGLEYIGFIGSDGSAHYATWVKGRFTISKTSTTVDLKITSPTTEDTATYFCARDWNDYWAHDLWGPGTLVTVSS
# VL: AQVLTQTTSPVSAAVGGTVTINCQASQIVTSKSALSWYQQKPGQPPRLLIYKASTLASGVPSRFSGSGSGTQFTLTISDLESDDAATYYCAGGYYNSGDLNPFGGGTEVVVK
# notes: V regions on human Ig constant parts; also called AB137_7
# B8: P018.S.14.A.A04 (antibody, V domains shown)
# VH: QSLEESGGRLVTPGTPLTLTCTVSGFSLNDYWMSWVRQAPGKGLEWIGYIDVGGSLYYASWAKGRFTISRTSTTVDLKMTSLTTEDTATYFCARGGLTYGFDLWGPGTLVTVSS
# VL: DIVMTQTPASVSEPVGGTVTINCQASEDISSYLAWYQQKPGQRPKRLIYGASDLASGVPSRFSASGSGTEYALTISDLESADAATYYCHYYATISGLGVAFGGGTEVVVK
# notes: V regions on human Ig constant parts; also called AB137_9
# Target: CD134 expressed on the cell surface of HT1080_OX40 cells (human) (UniProt P43489)
# Sequence (P43489 29-277): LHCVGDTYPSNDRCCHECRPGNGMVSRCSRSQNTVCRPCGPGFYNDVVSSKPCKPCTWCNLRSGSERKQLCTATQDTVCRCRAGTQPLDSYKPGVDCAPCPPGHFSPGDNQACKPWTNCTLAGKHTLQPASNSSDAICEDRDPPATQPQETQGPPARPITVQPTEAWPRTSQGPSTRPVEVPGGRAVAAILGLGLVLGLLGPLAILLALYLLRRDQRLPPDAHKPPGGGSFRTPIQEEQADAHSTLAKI
# Test: cell-based or functional assay
# Wherever Functional assay Cross-linked by F(ab′)2 fragment IL-8 is given: test concentration or dose not given here.
# Wherever Functional assay IL-8 is given: test concentration or dose not given here.
Binder,"EC 50 (IL-8 release, cross-linked) [µg/mL]",Functional assay Cross-linked by F(ab′)2 fragment IL-8 [abs. corr.],Functional assay IL-8 [abs. corr.]
B1,0.966,2.39,0.032

# Target: CD134 expressed on the cell surface of HT1080_OX40 cells (human) (UniProt P43489)
# Test: HT1080_OX40 cells, imaging
row,Binder,Cellular binding assay [RFU]
1,B1,40

# Target: T1, CD137 expressed on the cell surface of HT1080_4-1BB cells (human, UniProt Q07011 24-255)
# T1 sequence (Q07011 24-255): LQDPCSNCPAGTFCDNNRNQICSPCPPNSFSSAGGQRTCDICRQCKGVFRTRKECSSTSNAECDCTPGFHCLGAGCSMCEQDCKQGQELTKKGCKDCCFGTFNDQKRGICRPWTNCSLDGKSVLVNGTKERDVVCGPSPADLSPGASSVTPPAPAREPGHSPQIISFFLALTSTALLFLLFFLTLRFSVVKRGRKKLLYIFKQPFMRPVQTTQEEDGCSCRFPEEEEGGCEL
# Test: cell-based or functional assay
Binder,Functional assay Cross-linked by F(ab′)2 fragment IL-8 [abs. corr.],Functional assay IL-8 [abs. corr.]
B2,1.55,0.368
B3,1.4,0.113
B4,1.14,0.222
B5,1.36,-0.346
B6,1.52,-0.011
B7,0.789,-0.164
B8,0.972,0.785

# Target: T1, CD137 expressed on the cell surface of …
# Test: HT1080_4-1BB cells, imaging; further: test concentration or dose not given here
row,Binder,Cellular binding assay [RFU]
1,B2,46
2,B3,8
3,B4,19
4,B5,7
5,B6,1
6,B7,13
7,B8,81

# Target: T2, CD137 protein (His-tagged, Sino Biological Inc. 10041-H08H) (human, UniProt Q07011 24-186)
# T2 construct: bought protein coated on ELISA plates; also called 4-1BB; TNFRSF9; not shown: His tag
# Test: ELISA, coated His-tagged CD137; further: test concentration or dose not given here
row,Binder,ELISA [abs. corr.]
1,B2,3.42
2,B3,2.55
3,B4,2.07
4,B5,2.33
5,B6,2.9
6,B7,1.73
7,B8,3.44
